Experimental findings from article PMC7849420 (Virology, 2021) are described below.

Holding throughout (test): ELISA
In general terms: An ELISA detects its analyte on a solid surface through an enzyme-linked reagent.

In assay [1] the target is T1, recombinant truncated HuCoV-NL63 nucleocapsid (N) protein AA100-377 (HuCoV-NL63, UniProt Q6Q1R8 100-377).
T1 sequence: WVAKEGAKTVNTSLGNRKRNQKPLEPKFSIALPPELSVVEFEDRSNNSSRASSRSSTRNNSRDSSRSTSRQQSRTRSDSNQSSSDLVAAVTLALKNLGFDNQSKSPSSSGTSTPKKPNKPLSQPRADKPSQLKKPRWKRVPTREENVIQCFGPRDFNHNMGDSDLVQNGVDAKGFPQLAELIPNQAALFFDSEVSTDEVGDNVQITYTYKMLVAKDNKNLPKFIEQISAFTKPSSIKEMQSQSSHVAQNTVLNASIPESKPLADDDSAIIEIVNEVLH

In assay [2] the target is recombinant truncated SARS-CoV nucleocapsid (N) protein AA133-422 (SARS-CoV, UniProt P59595 133-422).
The target in assay [3] is recombinant truncated SARS-CoV-2 nucleocapsid (N) protein AA133-419 (SARS-CoV-2, UniProt P0DTC9 133-419).
For assay [4], the target named is recombinant truncated HuCoV-NL63 nucleocapsid (N) protein AA100-377 (HuCoV-NL63, UniProt Q6Q1R8).
Assay [5] concerns the target recombinant truncated SARS-CoV-2 nucleocapsid (N) protein AA133-419 (SARS-CoV-2, UniProt P0DTC9).
The target in assay [6] is recombinant truncated SARS-CoV nucleocapsid (N) protein AA133-422 (SARS-CoV, UniProt P59595).

B1: mBG17 mouse monoclonal antibody against SARS-CoV-2 nucleocapsid protein (antibody, V domains shown)
VH: EVKLEESGGGLVQPGGSMKFSCVASGFTFSDYWMNWVRQSPDKGLEWVAEIRLKSNNYATHYAASVKGRFTISRDDSKSSVYLQMNNLRAEDSGIYYCTRSAMDYWGQGTSVTVSS
VL: DIVMSQSPSSLAVSVGEKITMSCKSSQSLLYTSDQKNYLAWFQQKPGQSPKLLIFWASTRDSGVPDRFTGSGSGTDFTLTISSVKAEDLAVYYCQQFYNYPRTFGGGTKLEIK
B1: the “Corected Average (background-corrected A450)” value (“Corected Average” for short) in assay [1] came out at 0.365 absorbance at 450nm; in assay [2] it was 0.872 absorbance at 450nm; in assay [3], 0.832 absorbance at 450nm.

B2: mBG21 mouse monoclonal antibody against SARS-CoV-2 nucleocapsid protein (antibody, V domains shown)
VH: QIQLVQSGPELKKPGETVKISCKASGYTFTDYSMHWVKQAPGKGSKWMGWINTETGEPTYADDFKGRFAFSLETSASTAYLQINNLKNEDTATYFCALRRWGQGTLVTVSA
VL: IVMTQTPKFLLVSAGDRVTITCKASQSVSNDVAWFQQKPGQSPKLLIYFASNRYTGVPDRFTGSGYGTDFTFTITTVQAEDLAVYFCQQDYSSPWTFGGGTKLEIK
Regarding B2, the “Corected Average” value in assay [4] was found to be 0.339 absorbance at 450nm; in assay [5], 0.743 absorbance at 450nm; in assay [6], 0.302 absorbance at 450nm.

B3: mBG22 mouse monoclonal antibody against SARS-CoV-2 nucleocapsid protein (antibody, V domains shown)
VH: QIQLVQSGPELKKPGETVKISCKASGYTFTDYSMHWVKQAPGKGSKWMGWINTETGEPTYADDFKGRFAFSLETSASTAYLQINNLKNEDTATYFCALRRWGQGTLVTVSA
VL: IVMTQTPKFLLVSAGDRVTITCKASQSVSNDVAWFQQKPGQSPKLLIYFASNRYTGVPDRFTGSGYGTDFTFTITTVQAEDLAVYFCQQDYSSPWTFGGGTKLEIK
With B3, the “Corected Average” value in assay [4] was 0.339 absorbance at 450nm; in assay [5], 0.754 absorbance at 450nm; in assay [6], 0.779 absorbance at 450nm.

B4: mBG67 mouse monoclonal antibody against SARS-CoV-2 nucleocapsid protein (antibody, V domains shown)
VH: EVQLVESGGGLVQPGGSLKLSCAASGFTFSNYGMSWVRQTPDKRLELVATINRNGGSTYYLDSVKVRFTISRDNAKSTLFLQLSSLKSDDTAMYYCARIYDFDEDYFDVWGAGTTVTVSS
VL: QIVLTQSPAIMSASLGERVTMTCTASSSVSSSYLHWYQQKPGSSPKLWIYSTSNLASGVPARFSGSGSGTSYSLTISSMEAEDAATYYCLQYHRSPWTFGGGTKLEIK
For B4, the “Corected Average” value came to 0.094 absorbance at 450nm in assay [2] and 0.861 absorbance at 450nm in assay [3].

B5: mBG86 mouse monoclonal antibody against SARS-CoV-2 nucleocapsid protein (antibody, V domains shown)
VH: EVQLVESGGGLVQPGGSLKLSCAASGFTFSNYGMSWVRQTPDKRLELVATINRNGGSTYYLDSVKVRFTISRDNAKSTLFLQMSSLKSEDTAMYYCARIYDYDEDYFDVWGAGTTVTVSS
VL: QIVLTQSPAIMSASLGERVTMTCTASSSVSSSYLHWYQQKPGSSPKLWIYSTSNLASGVPARFSGSGSGTSYSLTISSMEAEDAATYYCLQYHRSPWTFGGGTKLEIK
As for B5, in assay [3], the “Corected Average” value was 0.806 absorbance at 450nm.
